Reference: paper PMC9628480, “Discovery and structural characterization of chicoric acid as a SARS-CoV-2 nucleocapsid protein ligand and RNA binding disruptor”

Biological target: SARS-CoV-2 nucleocapsid (N) protein, full-length (SARS-CoV-2 (protein amplified from …, UniProt A0A6B9VLF5 1-419))
Experiment: fluorescence polarization
Settings: protein: recombinant; tags: 6xHis (pET28a-TEV), not cleaved; chain copies: 2; label: 5'-FITC; hairpin

B1: RNA2 (UUUUUU to AAAAAA) (structured_RNA)
RNA: CACUCACUGUCAAAAAAGAUGGUAGAGU
  Kd: 498 ± 43.2 nM
